Here are results for 3 substances from patent publication US20100162415A1.

Assay in all cases: cell-based or functional assay
Assay [1] concerns the target human VEGF-A (huVEGF165) (human) (UniProt P15692).
Assay [2] addresses hum-X VEGF (mouse VEGF-A with 10 residues replaced by the human residues).
For assay [3], the target named is murine VEGF-A (muVEGF164) (mouse) (UniProt Q00731).
Sequence of UniProt Q00731 (Q00731 other isoform, or with tags, fused parts or gaps): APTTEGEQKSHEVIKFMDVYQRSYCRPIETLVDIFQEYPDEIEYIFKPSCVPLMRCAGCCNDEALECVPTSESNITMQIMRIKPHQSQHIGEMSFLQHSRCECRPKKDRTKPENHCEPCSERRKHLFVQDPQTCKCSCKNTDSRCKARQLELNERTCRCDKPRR

Sequence of UniProt P15692 (P15692 other isoform, or with tags, fused parts or gaps): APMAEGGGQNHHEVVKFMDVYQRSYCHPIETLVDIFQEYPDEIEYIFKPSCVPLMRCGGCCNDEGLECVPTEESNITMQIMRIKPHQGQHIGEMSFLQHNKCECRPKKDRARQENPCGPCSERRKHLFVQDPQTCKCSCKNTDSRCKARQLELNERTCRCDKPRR

For Y0317 (antibody), the IC50, inhibition of VEGF-stimulated bovine retinal capillary endothelial cell proliferation turned out to be 0.00075 µg/mL in assay [1] and 0.0027 µg/mL in assay [2].

G6-31 (antibody): in assay [2], the IC50, inhibition of VEGF-stimulated bovine retinal capillary endothelial cell proliferation is 0.0061 µg/mL.

For the substance B20-4.1 (antibody), the IC50, inhibition of VEGF-stimulated bovine retinal capillary endothelial cell proliferation in assay [3] is 0.5 µg/mL; in assay [1] it was 0.052 µg/mL; in assay [2], 0.076 µg/mL.
